One substance from PMC9121386 can be followed below.

This experiment concerns the target 80S ribosome (purified 80S ribosomal fraction from H1299 cells) (human (endogenous in H1299)).

Chain of fragile histidine triad (Fhit), wild type (P49789 whole entry): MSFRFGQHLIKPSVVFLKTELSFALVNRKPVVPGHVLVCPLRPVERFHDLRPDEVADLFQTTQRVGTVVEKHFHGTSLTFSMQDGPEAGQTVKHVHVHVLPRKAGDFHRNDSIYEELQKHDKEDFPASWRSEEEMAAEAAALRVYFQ

Substance “fragile histidine triad (Fhit), wild type (from UniProt P49789 1-147) (enzyme)” displayed a turnover of Ap3A by Fhit (RP-HPLC) with 80S ribosomes pre-incubated with RNaseA of less than 5%.
